How the values were obtained:
Human FcRn [1] = target: T1, Human FcRn (human, UniProt P55899 24-297; P61769 21-119); test: ELISA, FcRn coated on plate, pH 7.0
T1 construct: also called neonatal Fc receptor
Protocol: (§1) The binding of antibodies to FcRn of various antibody variants at different pHs was determined. A 96-well Maxisorp plate was coated with 100 ul of 5 μg/ml FcRn. The plate was incubated overnight at 4° C., and then blocked with 4% skim milk for 2 hr at room temperature after washing 3 times with 0.05% Tween 20 washing buffer. […] The plate was then washed 3 times and 100 μL of Fab-anti-human Fab-HRP or Goat anti-human IgG-HRP secondary antibody diluted in 4% skimmed milk was added. Plates were then incubated 50 min at room temperature, washed three times, and 100 μL fresh TMB substrate was added. Plates were developed for 3 minutes on bench with gentle shaking. Plate was quenched with 100 μL 1M HCl, shaken briefly, read at A450 on a spectramax m5 plate reader.

Human FcRn [2] = target: T1, Human FcRn; test: ELISA, FcRn coated on plate; ratio of EC50 at pH 7.0 to pH 6.0
Protocol: as §1

[3] = target: gp120 (HT593) expressed on human embryonic kidney (HEK) cells (HIV-1); test: cell-based or functional assay
[4] = target: HIV-1 Env (gp120) of virus 8106 (HIV-1); test: cell-based or functional assay
[5] = target: HIV-1 Env (gp120) of virus 8398 (HIV-1); test: cell-based or functional assay
[6] = target: HIV-1 Env (gp120) of virus 7051 (HIV-1); test: cell-based or functional assay
[7] = target: HIV-1 Env (gp120) of virus BaL (HIV-1); test: cell-based or functional assay
[8] = target: HIV-1 Env (gp120) of virus WITO (HIV-1 (clone WITO)); test: cell-based or functional assay
[9] = target: HIV-1 Env (gp120) of virus 727 (HIV-1); test: cell-based or functional assay
[10] = target: HIV-1 Env (gp120) of virus 593 (HIV-1); test: cell-based or functional assay
[11] = target: HIV-1 Env (gp120) of virus 8339 (HIV-1); test: cell-based or functional assay
[12] = target: HIV-1 Env (gp120) of virus REJO (HIV-1); test: cell-based or functional assay
[13] = target: HIV-1 Env (gp120) of virus 8176 (HIV-1); test: cell-based or functional assay
[14] = target: HIV-1 Env (gp120) of virus CH106 (HIV-1); test: cell-based or functional assay
[15] = target: HIV-1 Env (gp120) of virus 8089 (HIV-1); test: cell-based or functional assay
[16] = target: HIV-1 Env (gp120) of virus 7552 (HIV-1); test: cell-based or functional assay
[17] = target: HIV-1 Env (gp120) of virus 712 (HIV-1); test: cell-based or functional assay
[18] = target: HIV-1 Env (gp120) of virus CH058 (HIV-1); test: cell-based or functional assay
[19] = target: HIV-1 Env (gp120) of virus 7576 (HIV-1); test: cell-based or functional assay
[20] = target: HIV-1 Env (gp120) of virus 7406 (HIV-1); test: cell-based or functional assay
[21] = target: HIV-1 Env (gp120) of virus 8320 (HIV-1); test: cell-based or functional assay
[22] = target: HIV-1 Env (gp120) of virus 7015 (HIV-1); test: cell-based or functional assay
[23] = target: HIV-1 Env (gp120) of virus 1489 (HIV-1); test: cell-based or functional assay
[24] = target: HIV-1 Env (gp120) of virus 657 (HIV-1); test: cell-based or functional assay
[25] = target: HIV-1 Env (gp120) of virus 7467 (HIV-1); test: cell-based or functional assay

T1 sequence (P55899 24-297 limits assumed, chain 1 of 2): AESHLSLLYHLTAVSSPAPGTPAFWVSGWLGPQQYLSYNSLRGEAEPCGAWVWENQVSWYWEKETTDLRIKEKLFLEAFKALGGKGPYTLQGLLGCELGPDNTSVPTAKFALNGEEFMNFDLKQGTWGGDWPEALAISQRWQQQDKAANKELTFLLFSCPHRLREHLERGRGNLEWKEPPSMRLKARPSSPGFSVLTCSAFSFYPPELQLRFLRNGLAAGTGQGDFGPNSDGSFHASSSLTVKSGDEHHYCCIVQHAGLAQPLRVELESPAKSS
T1 sequence (P61769 21-119 limits assumed, chain 2 of 2): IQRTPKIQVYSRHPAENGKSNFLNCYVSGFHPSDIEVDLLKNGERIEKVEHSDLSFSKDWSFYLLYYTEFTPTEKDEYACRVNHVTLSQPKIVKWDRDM

B1: PGT121.60 hIgG1/hLambda (antibody)
heavy: QMQLQESGPGLVKPSETLSLTCSVSGASISDSYWSWIRRSPGKGLEWIGYVHKSGDTNYNPSLKSRVHLSLDTSKNQVSLSLTGVTAADSGKYYCARTLHGRRIYGIVAFNEWFTYFYMDVWGTGTQVTVSSASTKGPSVFPLAPSSKSTSGGTAALGCLVKDYFPEPVTVSWNSGALTSGVHTFPAVLQSSGLYSLSSVVTVPSSSLGTQTYICNVNHKPSNTKVDKKVEPKSCDKTHTCPPCPAPELLAGPDVFLFPPKPKDTLMISRTPEVTCVVVDVSHEDPEVKFNWYVDGVEVHNAKTKPREEQYNSTYRVVSVLTVLHQDWLNGKEYKCKVSNKALPLPEEKTISKAKGQPREPQVYTLPPSREEMTKNQVSLTCLVKGFYPSDIAVEWESNGQPENNYKTTPPVLDSDGSFFLYSKLTVDKSRWQQGNVFSCSVLHEALHSHYTQKSLSLSPGK
light: not shown
- EC50 (Human FcRn [1]): 78 nM
- Ratio pH 7.0/6.0 (Human FcRn [2]): 355
- % ADCC Activity (ADCC reporter cell based assay; sample stressed at 25° C. for 4 weeks, relative to its untreated control) [3]: 65%
- EC50 (µg/mL), killing of HIV-infected cells (Mean) [4]: 0.11 µg/mL
- Emax, killing of HIV-infected cells (Mean) [4]: 75%
- EC50 (µg/mL), killing of HIV-infected cells (Mean) [5]: 0.067 µg/mL
- Emax, killing of HIV-infected cells (Mean) [5]: 76%
- EC50 (µg/mL), killing of HIV-infected cells (Mean) [6]: 0.394 µg/mL
- Emax, killing of HIV-infected cells (Mean) [6]: 49%
- EC50 (µg/mL), killing of HIV-infected cells (Mean) [7]: 0.048 µg/mL
- Emax, killing of HIV-infected cells (Mean) [7]: 73%
- EC50 (µg/mL), killing of HIV-infected cells (Mean) [8]: 2.52 µg/mL
- Emax, killing of HIV-infected cells (Mean) [8]: 71%
- EC50 (µg/mL), killing of HIV-infected cells (Mean) [9]: 0.034 µg/mL
- Emax, killing of HIV-infected cells (Mean) [9]: 66%
- EC50 (µg/mL), killing of HIV-infected cells (Mean) [10]: 0.912 µg/mL
- Emax, killing of HIV-infected cells (Mean) [10]: 56%
- EC50 (µg/mL), killing of HIV-infected cells (Mean) [11]: 3.81 µg/mL
- Emax, killing of HIV-infected cells (Mean) [11]: 13%
- EC50 (µg/mL), killing of HIV-infected cells (Mean) [12]: 2.6 µg/mL
- Emax, killing of HIV-infected cells (Mean) [12]: 0%
- EC50 (µg/mL), killing of HIV-infected cells (Mean) [13]: 1.01 µg/mL
- Emax, killing of HIV-infected cells (Mean) [13]: 56%
- EC50 (µg/mL), killing of HIV-infected cells (Mean) [14]: 6.17 µg/mL
- Emax, killing of HIV-infected cells (Mean) [14]: 46%
- EC50 (µg/mL), killing of HIV-infected cells (Mean) [15]: 0.226 µg/mL
- Emax, killing of HIV-infected cells (Mean) [15]: 64%
- EC50 (µg/mL), killing of HIV-infected cells (Mean) [16]: 0.011 µg/mL
- Emax, killing of HIV-infected cells (Mean) [16]: 66%
- EC50 (µg/mL), killing of HIV-infected cells (Mean) [17]: 0.084 µg/mL
- Emax, killing of HIV-infected cells (Mean) [17]: 71%
- EC50 (µg/mL), killing of HIV-infected cells (Mean) [18]: 0.16 µg/mL
- Emax, killing of HIV-infected cells (Mean) [18]: 71%
- EC50 (µg/mL), killing of HIV-infected cells (Mean) [19]: 0.016 µg/mL
- Emax, killing of HIV-infected cells (Mean) [19]: 71%
- EC50 (µg/mL), killing of HIV-infected cells (Mean) [20]: 0.09 µg/mL
- Emax, killing of HIV-infected cells (Mean) [20]: 63%
- EC50 (µg/mL), killing of HIV-infected cells (Mean) [21]: 2.12 µg/mL
- Emax, killing of HIV-infected cells (Mean) [21]: 0%
- EC50 (µg/mL), killing of HIV-infected cells (Mean) [22]: 0.516 µg/mL
- Emax, killing of HIV-infected cells (Mean) [22]: 55%
- EC50 (µg/mL), killing of HIV-infected cells (Mean) [23]: 0.276 µg/mL
- Emax, killing of HIV-infected cells (Mean) [23]: 70%
- EC50 (µg/mL), killing of HIV-infected cells (Mean) [24]: 1.44 µg/mL
- Emax, killing of HIV-infected cells (Mean) [24]: 62%
- EC50 (µg/mL), killing of HIV-infected cells (Mean) [25]: 0.139 µg/mL
- Emax, killing of HIV-infected cells (Mean) [25]: 54%

— patent US20180371086A1 (Gilead, published 2018)
